Patent KR20220167207A (dated 2022)
Where a chain is given by its changes, count along the chain named. Where no end group is shown, it is not given here.

T1: BSA-conjugated human CADM1 peptide (human, also: conjugated to BSA via added C-terminal Cys)
T1 construct: also called human peptide; rhCADM1 peptide
T1 peptide: DSRAGEEGSIRAVDHC(BSA)

T2: CADM1 peptide expressed on SBC-5 small cell lung cancer cells (CADM1-SBC-5); peptide - transmembrane domain - … (human)
T2 construct: also called CADM1 펩타이드를 발현하는 SBC-5 세포
T2 sequence (Q9BY67 whole entry, looked up): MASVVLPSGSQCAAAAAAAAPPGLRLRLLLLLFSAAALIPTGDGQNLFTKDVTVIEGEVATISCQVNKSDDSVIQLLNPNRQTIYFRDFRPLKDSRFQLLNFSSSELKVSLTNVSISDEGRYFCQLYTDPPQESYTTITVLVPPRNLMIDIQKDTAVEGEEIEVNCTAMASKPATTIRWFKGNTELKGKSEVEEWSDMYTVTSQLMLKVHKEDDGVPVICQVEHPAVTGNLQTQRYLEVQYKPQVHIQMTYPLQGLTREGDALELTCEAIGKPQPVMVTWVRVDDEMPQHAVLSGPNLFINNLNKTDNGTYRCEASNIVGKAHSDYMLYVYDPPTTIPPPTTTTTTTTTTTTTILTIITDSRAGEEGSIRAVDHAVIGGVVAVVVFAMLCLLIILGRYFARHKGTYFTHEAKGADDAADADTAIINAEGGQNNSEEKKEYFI

T3: BSA-conjugated mouse CADM1 peptide (mouse, also: conjugated to BSA via added C-terminal Cys)
T3 construct: also called mouse peptide
T3 peptide: DSRAGEEGTIGAVDHC(BSA)

B1: 5RA5 (scFv, V domains shown)
VH: EVQLLESGGGLVQPGGSLRLSCAASGFTFSNYAMSWVRQAPGKGLEWVSWIYHGGGDTYYADSVKGRFTISRDNSKNTLYLQMNSLRAEDTAVYYCARAAVYCKRTNCYSYDAMDVWGQGTLVTVSS
VL: QSVLTQPPSASGTPGQRVTISCSGSSSNIGNNSVTWYQQLPGTAPKLLIYSNNNRPSGVPDRFSGSKSGTSASLAISGLRSEDEADYYCGAWDDSLNAYVFGGGTKLTAL
notes: Tested as purified scFv (one chain) with His tag and HA tag, from pComb3X in E. coli; human synthetic library
B2: 5RB6 (scFv, V domains shown)
VH: EVQLLESGGGLVQPGGSLRLSCAASGFTFSDYAMSWVRQAPGKGLEWVSWIYYDSGSKYYADSVKGRFTISRDNSKNTLYLQMDSLRAEDTAVYYCAKHGRNTKNWPWYSANGMDVWGQGTLVTVSS
VL: B1 VL with S23T, N31S, T35S, N52D, N53S, N54K, D94S, N97S, A109V
notes: Tested as purified scFv with His tag and HA tag; human synthetic library; also called 5RB6(H); 5RB6 # Human specific
B3: 5RH12 (scFv, V domains shown)
VH: B1 VH with N84S, A100R, Y102H, K104Q, R105Q, T106R, N107R, Y109S
VL: B1 VL with N31S, T35S, S51A, N52D, N53S, N54H, N97S, A109V
notes: Tested as purified scFv with His tag and HA tag; human synthetic library
B4: 5RA7 (scFv, V domains shown)
VH: EVQLLESGGGLVQTGGSLRLSCAASGFTFSDYAMSWVRQAPGRGLEWVSAIYPGNSSIYYADSVKGRFTISRDNSKNTLYLQMNSLRAEDTAVYYCARVPVQCMLTRCYSYDAMDVWGQGTLVTVSS
VL: B1 VL with S23T, S51A, N52D, N53S, N54H, D94S, A109V
notes: as for B3
B5: 5RA8 (scFv, V domains shown)
VH: EVQLLESGGGLVQPGGSLRLSCAASGFTFSSYGMSWVRQAPGKGLEWVSGISYSGGSTYYADSVKGRFTISRDNSKNTLYLQMNSLRAEDTAVYYCARPISRLGAYMWSSSYAMDVWGQGTLVTVSS
VL: B1 VL with N31S, S33Y, S51A, N53S, A91S, D94A, A98G, A109V
notes: as for B3
B6: 5RG9 (scFv, V domains shown)
VH: B5 VH with G50W, S57N, R102H, L103F
VL: B1 VL with N31S, S33Y, S51A, N53S, E84G, D94A, A98G, A109V
notes: as for B3
B7: 6RC7 (scFv, V domains shown)
VH: EVQLLESGGGLVQPGGSLRLSCAASGFTFSNYAMSWVRQAPGKGLEWVSGIYPNSGSNTYYADSVKGRFTISRDNSKNTLYLQMNSLRAEDTAVYYCARAIGPCLRYPCYSADAMDVWGQGTLVTVSS
VL: QSVLTQPPSASGTPGQRVTISCTGSSSNIGSNYVNWYQQLPGTAPKLLIYANSNPPSGVPDRFSGSKSGTSASLGISGLRSEDEADYYCGAWDDNLNAYVFVGGTKLTVL
notes: as for B3
B8: 3C5 (scFv, V domains shown)
VH: AVTLDESGGGLQTPGRALSLVCKGSGFTFSSVNMFWVRQAPGKGLEYVAGIRKDGGGPLYGAAVKGRATISRDNGQSTVRLQLNNLRAEDTGTYYCAKAAGSCWAGCTGFIDAWGHGTEVIVSS
VL: LTQPSSVSANPGETVKITCSGGYNYYGWYQQKAPGSAPVTLIYANTDRPSDIPSRFSGSKFGSTATLTITGVQAEDEAVYFCGSRDSSYVGVFGAGTTLTVL
notes: Tested as purified scFv with His tag and HA tag; chicken immune library
B9: 4C8 (scFv, V domains shown)
VH: AVTLDESGGGLQTPGRALSLVCKASGFSFSSYSMYWVRQAPGKGLEYVAEITSSGRYTYYGSAVKGRATISRDNGQSTVRLQLNNFRAEDTATYFCAKGSGTGYSDSGAGGEIDAWGHGTEVIVSS
VL: LTQPSSVSANPGETVKITCSGGSGSYYGWYQQKSPGSAPVTVIYQNKQRPSNIPSRFSGSKSGSTGTLTITGVQAEDEAVYFCGNYESSAGIFGAGTTLTVL
notes: as for B8
B10: 4A2 (scFv, V domains shown)
VH: AVTLDESGGGLQTPGRALSLACKGSGFTFSSYAMNWVRQAPGKGLEFVAQITSSGRYTYYGTAVKGRATISRDNGQSTVRLQLNNLRAEDSGTYYCAKDAAAGYYDGATAGDIDAWGHGTEVIVSS
VL: LTQPSSVSANPGETVKITCSGGYNRYGWYQQKSPGSAPVTVIYSNNQRPSNIPSRFSGSKSGSTATLTITGVQAEDEAVYYCGSYDSSDGYAGIFGAGTTLTVL
notes: as for B8
B11: RH6 (scFv, V domains shown)
VH: B10 VH with R16G, A17G, A21V
VL: VTQPSSVSANPGESVKITCSGGSYSYGWYQQKSPGSAPVTVIYSNNQRPSNIPSRFSGSTSGSTSTLTITGVQADDEAVYFCGTFDSSTNAAFGAGTTLTVL
notes: as for B8
B12: 4A8 (scFv, V domains shown)
VH: B10 VH with R16G, A17G, A21V, G24A
VL: LTQPSSVSANLGGTVKITCSGGSGSNHYGWYQQKSPGSAPVTVIYSNNKRPSNIPSRFSGSKFGSTATLTITGVQADDEAVYYCGGYDSSAGYIGPFGAGTTLTVL
notes: as for B8
B13: RB11 (scFv, V domains shown)
VH: B10 VH with R16G, A17G, A21V
VL: LTQPSSVSANPGGTVKITCSGGSGSYGWFQQKAPGSAPVTLIYANTNRPSDIPSRFSGSKSGSTATLTITGVQVEDEAVYYCGSTDSSYVSIFGAGTTLTVL
notes: as for B8
B14: 4H7 (scFv, V domains shown)
VH: AVTLDESGGGLQTPGGTLSLVCKASGFDFSSYEMAWVRQAPGKGLEYVAGIDNTGSATNYGAAVKGRATISRDNGQSTVRLQLNNLRAEDTATYFCAKDAYGYSGSDSWYAANPAYIDAWGHGTEVIVSS
VL: LTQPSSVSANPGETVKITCSGSSGSYGWYQQKSPGSAPVTVIYDNTNRPSDIPSRFSGSKSGSTGTLTITGVQAEDEAVYFCGSRDSSYVGIFGAGTTLTVL
notes: as for B8
B15: 5A2 (scFv, V domains shown)
VH: B8 VH with R16G, A17T, T28D, Y95F
VL: B14 VL with S22G, G24S, S25Y, D44Y, T46D, N47K, G65A, F81Y, R85A
notes: as for B8
B16: 5A5 (scFv, V domains shown)
VH: B8 VH with R16G, A17G
VL: LTQPSSVSANLGGTVKITCSGSSGYGYGWYQQKSPGSAPVTVIYYNNKRPSDIPSRFSGSKSGSTATLTITGVQVEDEAVYYCGSADSSAGYVGIFGAGTTLTVL
notes: as for B8
B17: 3G10 (scFv, V domains shown)
VH: B8 VH with R16G, A17G
VL: LTQPSSVSANPGETVKITCSGSTGSYGWFQQKSPGSALVTLIYNGNNRPSDIPSRFSGSKSGSTGTLTITGVQADDEAVYFCGGRESRSNPGIFGAGTTLTVL
notes: as for B8

Molecular target: T1, BSA-conjugated human CADM1 peptide
Assay: ELISA, scFv titrated on coated BSA-conjugated human CADM1 peptide, anti-HA-HRP, OD450

| Bmax | Kd | Binder |
| --- | --- | --- |
| 4.29 | 10.4 nM | B1 |
| 4.25 | 11.9 nM | B2 |
| 5.07 | 271 nM | B3 |
| 4.42 | 43.7 nM | B4 |
| 4.12 | 1.9 nM | B5 |
| 3.52 | 8.05 nM | B6 |
| 4.19 | 4.23 nM | B7 |

Molecular target: T2, CADM1 peptide expressed on SBC-5 small …
Assay: flow cytometry, 1 ug scFv on 5x10^5 SBC-5 cells expressing the CADM1 peptide, PE anti-HA

| 결합력 (%) | Binder |
| --- | --- |
| 1.1% | B8 |
| 2.3% | B9 |
| 18.5% | B10 |
| 10% | B11 |
| 10.1% | B12 |
| 38.4% | B13 |
| 3.3% | B14 |
| 1.2% | B15 |

Molecular target: T1, BSA-conjugated human CADM1 peptide
Assay: ELISA, scFv titrated on coated BSA-conjugated human CADM1 peptide, anti-HA-HRP, OD450
Remark: another data set of the same source

| Bmax | Kd | Binder |
| --- | --- | --- |
| 4.41 | 49.7 nM | B8 |
| 4.52 | 123 nM | B16 |
| 1.91 | 2.77 nM | B17 |
| 4.47 | 66.5 nM | B9 |
| 4.14 | 4.19 nM | B10 |
| 4.16 | 5.58 nM | B11 |
| 4.22 | 16.4 nM | B12 |
| 4.01 | 0.649 nM | B13 |
| 4.48 | 52.7 nM | B14 |
| 4.38 | 47.9 nM | B15 |

Molecular target: T3, BSA-conjugated mouse CADM1 peptide
Assay: ELISA, scFv titrated on coated BSA-conjugated mouse CADM1 peptide, anti-HA-HRP, OD450

| Bmax | Kd | Binder |
| --- | --- | --- |
| 4.05 | 41.7 nM | B8 |
| 4.54 | 136 nM | B16 |
| 1.62 | 0.926 nM | B17 |
| 2.06 | 476 nM | B9 |
| 4.49 | 79.2 nM | B10 |
| 2.4 | 124 nM | B11 |
| 4.43 | 70.2 nM | B12 |
| 4 | 2.72 nM | B13 |
| 5.57 | 394 nM | B14 |
| 4.32 | 59.2 nM | B15 |

Molecular target: T4, comparison structure: the same structure without the CADM1 peptide (Myc tag, hinge, transmembrane domain, …)
T4 construct: also called 비교군 구조; CADM1 펩타이드를 포함하지 않는 세포
Assay: flow cytometry, 1 ug scFv on 5x10^5 cells with the structure without the CADM1 peptide, PE anti-HA

| 결합력 (%) | Binder |
| --- | --- |
| 0.7% | B10 |
| 0.7% | B11 |
| 0.9% | B12 |
| 1.2% | B13 |

Molecular target: T3, BSA-conjugated mouse CADM1 peptide
Assay: ELISA, scFv titrated on coated BSA-conjugated mouse CADM1 peptide, anti-HA-HRP, OD450
Remark: another data set of the same source

| Bmax | Kd | Binder |
| --- | --- | --- |
| 4.39 | 39.5 nM | B1 |
| 6.13 | 666 nM | B3 |
| 4.54 | 114 nM | B4 |
| 4.11 | 2 nM | B5 |
| 3.64 | 6.97 nM | B6 |
| 4.19 | 4.8 nM | B7 |
